Target: Hepatocyte Growth Factor (HGF) (UniProt P14210 32-728)
Experiment: ELISA

Chain of Hepatocyte Growth Factor (HGF) (P14210 32-728): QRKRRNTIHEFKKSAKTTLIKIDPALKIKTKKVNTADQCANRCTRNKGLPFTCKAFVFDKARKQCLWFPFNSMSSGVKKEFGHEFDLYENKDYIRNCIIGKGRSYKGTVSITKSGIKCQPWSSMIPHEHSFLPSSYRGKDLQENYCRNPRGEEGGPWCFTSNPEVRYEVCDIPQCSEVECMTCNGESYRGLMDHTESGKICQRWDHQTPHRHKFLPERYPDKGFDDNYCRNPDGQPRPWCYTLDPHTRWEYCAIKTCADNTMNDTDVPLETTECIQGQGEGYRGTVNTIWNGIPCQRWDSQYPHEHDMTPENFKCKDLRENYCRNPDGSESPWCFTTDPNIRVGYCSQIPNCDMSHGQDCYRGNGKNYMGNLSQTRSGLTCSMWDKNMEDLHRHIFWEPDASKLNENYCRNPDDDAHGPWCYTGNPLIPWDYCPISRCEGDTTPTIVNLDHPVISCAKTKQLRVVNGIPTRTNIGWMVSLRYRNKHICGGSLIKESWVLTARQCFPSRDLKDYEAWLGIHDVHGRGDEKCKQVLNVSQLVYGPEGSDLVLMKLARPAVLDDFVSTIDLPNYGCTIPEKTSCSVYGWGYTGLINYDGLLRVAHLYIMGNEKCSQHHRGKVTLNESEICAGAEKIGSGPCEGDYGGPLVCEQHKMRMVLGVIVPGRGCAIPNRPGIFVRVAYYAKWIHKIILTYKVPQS

B1: decoyMET^K842E (receptor)
chain: ECKEALAKSEMNVNMKYQLPNFTAETPIQNVILHEHHIFLGATNYIYVLNEEDLQKVAEYKTGPVLEHPDCFPCQDCSSKANLSGGVWKDNINMALVVDTYYDDQLISCGSVNRGTCQRHVFPHNHTADIQSEVHCIFSPQIEEPSQCPDCVVSALGAKVLSSVKDRFINFFVGNTINSSYFPDHPLHSISVRRLKETKDGFMFLTDQSYIDVLPEFRDSYPIKYVHAFESNNFIYFLTVQRETLDAQTFHTRIIRFCSINSGLHSYMEMPLECILTEKRKKRSTKKEVFNILQAAYVSKPGAQLARQIGASLNDDILFGVFAQSKPDSAEPMDRSAMCAFPIKYVNDFFNKIVNKNNVRCLQHFYGPNHEHCFNRTLLRNSSGCEARRDEYRTEFTTALQRVDLFMGQFSEVLLTSISTFIKGDLTIANLGTSEGRFMQVVVSRSGPSTPHVNFLLDSHPVSPEVIVEHTLNQNGYTLVITGKKITKIPLNGLGCRHFQSCSQCLSAPPFVQCGWCHDKCVRSEECLSGTWTQQICLPAIYKVFPNSAPLEGGTRLTICGWDFGFRRNNKFDLKKTRVLLGNESCTLTLSESTMNTLKCTVGPAMNKHFNMSIIISNGHGTTQYSTFSYVDPVITSISPKYGPMAGGTLLTLTGNYLNSGNSRHISIGGKTCTLKSVSNSILECYTPAQTISTEFAVKLKIDLANRETSIFSYREDPIVYEIHPTKSFISGGSTITGVGKNLNSVSVPRMVINVHEAGRNFTVACQHRSNSEIICCTTPSLQQLNLQLPLKTKAFFMLDGILSKYFDLIYVHNPVFEPFEKPVMISMGNENVLEIKGNDIDPEAVKGEVLKVGNKSCENIHLHSEAVLCTVPNDLLKLNSELNIEWKQAISSTVLGKVIVQPDQNFTASGAAWSHPQFEKGAAWSHPQFEKGAAWSHPQFEKGAAHHHHHH
Binder B1 has a Kd of 0.251 nM.

Reference: patent publication US20210070868A1 (published 2021)
